Molecular target: T1, recombinant soluble human B7-H3 ectodomain protein (Homo sapiens, UniProt Q5ZPR3)
T1 construct: incubated with 3 μM of recombinant soluble human B7-H3 ectodomain protein
T1 sequence (Q5ZPR3 29-466 limits assumed): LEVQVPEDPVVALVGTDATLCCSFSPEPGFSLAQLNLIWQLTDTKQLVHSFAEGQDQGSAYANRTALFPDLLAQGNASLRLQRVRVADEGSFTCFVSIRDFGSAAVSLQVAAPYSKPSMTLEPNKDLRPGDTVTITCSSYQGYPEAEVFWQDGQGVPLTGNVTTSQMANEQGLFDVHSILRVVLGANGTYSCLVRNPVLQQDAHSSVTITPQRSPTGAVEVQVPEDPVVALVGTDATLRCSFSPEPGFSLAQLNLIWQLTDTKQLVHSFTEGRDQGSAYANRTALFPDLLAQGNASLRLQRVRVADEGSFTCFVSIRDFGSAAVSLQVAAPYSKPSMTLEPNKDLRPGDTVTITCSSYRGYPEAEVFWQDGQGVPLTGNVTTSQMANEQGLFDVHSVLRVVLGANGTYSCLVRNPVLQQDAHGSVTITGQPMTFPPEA
Test: Streptavidin bead binding to recombinant soluble human B7-H3 ectodomain by flow cytometry
Conditions: ligand immobilized to streptavidin magnetic beads; 3 μM recombinant soluble human B7-H3 ectodomain
Description: FIG. 9. Production and validation of ABYB7-H3.(A) Left panel: Commassie Blue staining of SDS-PAGE showing high purity and expected size (7,490 Da) of finalized ABYB7-H3 produced in E. Coli. Right panel: Mass spectrometric analysis of ABYB7-H3 showing a mass-to-charge peak (m/z=7,546) corresponding to ABY molecular weight. A doubly charged peak (m/z=3763) is also present. Amino acid sequence of ABYB7-H3 (SEQ ID NO:28) is shown on the bottom. (B) Flow cytometry of biotin-ABYB7-H3 conjugated streptavidin-microbeads complex showing binding to soluble recombinant B7-H3 (3 μM) as detected by APC conjugated anti-B7-H3 antibody. Unconjugated beads (negative control) and anti B7-H3 antibody (AB) conjugated beads (positive control) were also tested for binding to soluble B7-H3 antigen.
Production of ABYB7-H3. Development of a B7-H3-binding ligand from an ABY yeast display library is described in Example 1. […] ABYB7-H3 ligand was recombinantly expressed in E. coli, purified, and functionalized with 1:1 molar ratio of biotin. […] In order to confirm binding specificity of recombinantly produced ABYB7-H3 to its target, biotinylated-ABY was immobilized to streptavidin- magnetic beads and incubated with 3 μM of recombinant soluble human B7-H3 ectodomain protein.

B1: anti- B7-H3 antibody: biotinylated anti-B7-H3 antibody conjugated to beads as positive control (protein)
VHH: QVQLVESGGGLVQPGGSLRLSCAASGFTFSSYWMYWVRQTPGKGLEWVSTINRDGSATWYADSVKGRFTISRDNAKNTGYLQMNSLKPDDTAVYYCVSDPDNYSSDEMVPYWGQGTQVTVSS
  binding to soluble B7-H3: 81%

— US12274759B2, “Affibody proteins specific for B7-H3 (CD276)” (THE BOARD OF TRUSTEES OF THE LELAND STANFORD JUNIOR …, priority 2018, dated 2025)
